Test results reported in patent US20170368136.

Legend:
[1] = test system: CN21b
[2] = test system: CN21c
[3] = test system: CaM-KIIN
[4] = test system: T1, CN19
T1 sequence: KRPPKLGQIGRSKRVVIED

[5] = test system: T2, CN19 S12A
T2 sequence: KRPPKLGQIGRAKRVVIED

Sequence of CaMKII (chain): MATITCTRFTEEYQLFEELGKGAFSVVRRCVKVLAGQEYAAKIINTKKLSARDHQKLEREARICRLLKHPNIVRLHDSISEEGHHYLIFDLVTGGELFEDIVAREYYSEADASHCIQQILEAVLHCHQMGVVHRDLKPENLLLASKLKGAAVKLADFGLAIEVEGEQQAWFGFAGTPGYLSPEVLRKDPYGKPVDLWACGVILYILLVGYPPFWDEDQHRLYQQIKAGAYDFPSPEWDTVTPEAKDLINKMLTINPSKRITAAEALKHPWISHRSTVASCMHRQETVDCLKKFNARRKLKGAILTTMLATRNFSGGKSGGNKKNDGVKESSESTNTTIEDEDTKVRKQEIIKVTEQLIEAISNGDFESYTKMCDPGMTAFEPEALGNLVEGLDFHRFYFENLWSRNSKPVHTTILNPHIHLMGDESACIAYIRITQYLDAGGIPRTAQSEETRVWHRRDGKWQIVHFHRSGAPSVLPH

For CaMKII, the “AC2 substrate phosphorylation by CaMKII” value [1] was “The other 21mer peptides, CN21b and CN21c, had minimal or no effect”, the “AC2 substrate phosphorylation by CaMKII” value [2] was “The other 21mer peptides, CN21b and CN21c, had minimal or no effect” and the “MAP2 phosphorylation by CaMKII (Western), 5 µM peptide” value [2] was “Only CN21c failed to block MAP2 phosphorylation”. For the same substance, the “CaMKII substrate- and auto-phosphorylation (Western)” value [3] was “CaM-KIIN and CN21 block substrate- and T305 but not T286 auto-phosphorylation”.
In the case of PKC, the “phosphorylation rate by PKC relative to a MARCKS peptide substrate” value [4] is reported as “with a phosphorylation rate of >50% compared to a peptide derived from a major PKC substrate protein” and the “phosphate incorporation by PKC” value [5] is reported as “CN19 but not its S12A mutant was phosphorylated by PKC”.
